Measurements published in US9193963B2, “Mutant endoglucanase” (Toray Industries, Inc., priority 2011, dated 2015).

Tests used:
[1] = Saccharification of lignocellulose 2 with Trichoderma reesei culture solution and endoglucanase; assay type: biochemical, Rice straw; details: Lignocellulose 2, 24 hours; cellulase 1.0 mg/mL + endoglucanase 0.1 mg/mL + β-glucosidase (Novozyme 188) 0.01 mg/mL
In short: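 Dilute-sulfuric-acid-autoclaved rice straw (pH ~5) suspended at 5 wt % in 50 mM acetate pH 5.2, hydrolysed 24 h at 50 °C. Enzymes: T. reesei culture solution 1.0 mg/mL, mutant or wild-type endoglucanase 0.1 mg/mL, β-glucosidase 0.01 mg/mL. Glucose released was measured.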

[2] = Saccharification of lignocellulose 3 with Celluclast and endoglucanase; assay type: biochemical, Rice straw; details: 5 wt % Lignocellulose 3, pH 5.2, 50° C., 24 hours; 1.0 mg/mL cellulase + 0.1 mg/mL endoglucanase
In short: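 Hydrothermally pretreated rice straw (180° C., 20 min) at 5 wt % in 50 mM acetate buffer pH 5.2 digested at 50° C. for 24 h with Celluclast 1.0 mg/mL plus mutant or wild-type endoglucanase 0.1 mg/mL. Released glucose measured over time.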

[3] = Inhibition experiment with vanillin: degradation of phosphoric acid swollen cellulose; assay type: biochemical; details: enzyme 0.5 μM, 1 hour, 50° C., parent at 0 mM = 100%
Protocol: This substance was diluted using buffer and water to obtain a 2 wt % mixture so that the final concentration of sodium acetate was 50 mM (pH 5.2). This was designated as phosphoric acid swollen cellulose and used for the following examples.
The activity of the wild-type and the mutant endoglucanases to degrade phosphoric acid swollen cellulose in the presence of vanillin was measured. 1% phosphoric acid swollen cellulose/50 mM acetate buffer (pH 5.2) was used as a substrate. Vanillin (Sigma Aldrich) was added at final concentrations of 0, 5, 10, and 15 mM. The enzymes prepared in Reference Example 1 and Example 2 were added at a final concentration of 0.5 μM, followed by 1 hour of enzymatic reaction at 50° C.

[4] = Saccharification of lignocellulose 3 with Trichoderma reesei culture solution and endoglucanase; assay type: biochemical, Rice straw; details: Lignocellulose 3, 24 hours; cellulase 1.0 mg/mL + endoglucanase 0.1 mg/mL + β-glucosidase (Novozyme 188) 0.01 mg/mL
In short: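 Hydrothermally treated rice straw (180 °C, 20 min, 10 MPa; solid fraction) suspended at 5 wt % in 50 mM acetate buffer pH 5.2, hydrolysed 24 h at 50 °C. Enzymes: T. reesei culture-solution cellulase 1.0 mg/mL, mutant or wild-type endoglucanase 0.1 mg/mL, β-glucosidase 0.01 mg/mL; glucose generated measured.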

[5] = Activity to degrade phosphoric acid swollen cellulose; assay type: biochemical; details: 1% phosphoric acid swollen cellulose, pH 5.2, enzyme 0.5 μM, 1 hour, 50° C.; glucose generated by each parent endoglucanase = 100%
In short: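 Enzyme added to phosphoric acid swollen cellulose in 50 mM acetate buffer, pH 5.2; 1 h reaction at 30–85 °C, stopped by pH change if needed. Glucose released measured by glucose kit; activity expressed relative to parent endoglucanase set at 100%.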

[6] = Inhibition experiment with ferulic acid: degradation of phosphoric acid swollen cellulose; assay type: biochemical; details: enzyme 0.5 μM, 1 hour, 50° C., parent at 0 mM = 100%
[7] = Saccharification of lignocellulose 2 with Celluclast and endoglucanase; assay type: biochemical, Rice straw; details: 5 wt % Lignocellulose 2, pH 5.2, 50° C., 24 hours; 1.0 mg/mL cellulase + 0.1 mg/mL endoglucanase
In short: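 Dilute-sulfuric-acid-pretreated rice straw (10 wt% solids, pH ~5) suspended at 5 wt% in 50 mM acetate buffer pH 5.2 was digested 24 h at 50 °C with 1.0 mg/mL Trichoderma reesei Celluclast plus 0.1 mg/mL mutant or wild-type endoglucanase; glucose released was measured.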

[8] = Saccharification of lignocellulose 1 with Trichoderma reesei culture solution and endoglucanase; assay type: biochemical, Rice straw; details: Lignocellulose 1, 24 hours; cellulase 1.0 mg/mL + endoglucanase 0.1 mg/mL + β-glucosidase (Novozyme 188) 0.01 mg/mL
In short: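 Substrate was liquid-ammonia-treated rice straw (1 h, 150 °C), suspended at 5 wt % in 50 mM acetate buffer pH 5.2 and hydrolysed for 24 h at 50 °C. Enzymes: T. reesei culture solution 1.0 mg/mL, mutant or wild-type endoglucanase 0.1 mg/mL, β-glucosidase 0.01 mg/mL. Glucose released was measured.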

[9] = Saccharification of lignocellulose 1 with Celluclast and endoglucanase; assay type: biochemical, Rice straw; details: 5 wt % Lignocellulose 1, pH 5.2, 50° C., 24 hours; 1.0 mg/mL cellulase + 0.1 mg/mL endoglucanase
In short: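 Rice straw pretreated with liquid ammonia (15 min room temperature, then 1 h at 150° C), suspended at 5 wt % in 50 mM acetate pH5.2. Hydrolysed at 50° C for 24 h with 1.0 mg/mL Trichoderma reesei cellulase plus 0.1 mg/mL mutant or wild-type endoglucanase; glucose measured.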

B1: EGIa1 Wild-type: Ignisphaera aggregans-derived endoglucanase1, SEQ ID NO: 7, parent endoglucanase (protein)
chain: MNFFVKNGEIYKLDGATGKPKIIYLFGVNWFGFETRDYVVHGLWARNWVDMLQQIKSLGFNAIRLPFCTYSVQEGTMPNSNAINYNINPDLQGLTSIEIMEKIVAKANELGIYILLDYHRLGCDQIEPLWYSDQVSEQQFIDTWVSVAKRFAKYPNVIGADIRNEPWGATWGTDDPATDWRLAVEKVAPKILEVAPHWLIFVEGTYKTRPDIDERSWYPYYSYYVFWGENLRAVRYYPVRLPYEKIVYSPHTYGPDVFRQPYFDDPIFPENMRSIWMERFGYVKTELGYALVVGEFGGRYGHGGDPRDIIWQIKFVDWLIENRICNFFYWSWNANSGDTGGILKDDWTNIWEDKYQNLKRLMDYCSSIN
modifications: Ignisphaera aggregans EGIa1
With B1 the “Concentration of glucose generated, Culture solution + Wild-type” value (“Concentration … Culture solution + Wild-type” for short) [1] was 9 g/L, the “Concentration of glucose generated, Celluclast + Wild-type” value (“Concentration … Celluclast + Wild-type” for short) [2] was 11 g/L and the “Relative activity to degrade phosphoric acid swollen cellulose” value ([3]; vanillin 0 mM) was 100%. The “Relative activity to degrade phosphoric acid swollen cellulose” value ([3]; vanillin 5 mM) was 60%, the “Relative activity to degrade phosphoric acid swollen cellulose” value ([3]; vanillin 10 mM) was 55% and the “Relative activity to degrade phosphoric acid swollen cellulose” value ([3]; vanillin 15 mM) was 40%. For the same molecule, the “Concentration … Culture solution + Wild-type” value [4] was 8 g/L, the Relative activity [5] was 100% and the “Relative activity to degrade phosphoric acid swollen cellulose” value ([6]; ferulic acid 0 mM) was 100%. The “Relative activity to degrade phosphoric acid swollen cellulose” value ([6]; ferulic acid 5 mM) was 55%, the “Relative activity to degrade phosphoric acid swollen cellulose” value ([6]; ferulic acid 10 mM) was 50% and the “Relative activity to degrade phosphoric acid swollen cellulose” value ([6]; ferulic acid 15 mM) was 50%. The “Concentration … Celluclast + Wild-type” value [7] was 12 g/L, the “Concentration … Culture solution + Wild-type” value [8] was 8 g/L and the “Concentration … Celluclast + Wild-type” value [9] was 11 g/L.

B2: EGIa1 Mutant: mutant EGIa1, SEQ ID NO: 8; residue corresponding to 273rd tryptophan substituted with alanine (protein)
chain: MNFFVKNGEIYKLDGATGKPKIIYLFGVNWFGFETRDYVVHGLWARNWVDMLQQIKSLGFNAIRLPFCTYSVQEGTMPNSNAINYNINPDLQGLTSIEIMEKIVAKANELGIYILLDYHRLGCDQIEPLWYSDQVSEQQFIDTWVSVAKRFAKYPNVIGADIRNEPWGATWGTDDPATDWRLAVEKVAPKILEVAPHWLIFVEGTYKTRPDIDERSWYPYYSYYVFAGENLRAVRYYPVRLPYEKIVYSPHTYGPDVFRQPYFDDPIFPENMRSIWMERFGYVKTELGYALVVGEFGGRYGHGGDPRDIIWQIKFVDWLIENRICNFFYWSWNANSGDTGGILKDDWTNIWEDKYQNLKRLMDYCSSIN
modifications: Ignisphaera aggregans EGIa1 W227A
notes: residue corresponding to 273rd tryptophan substituted with alanine
For B2, the “Concentration of glucose generated, Culture solution + Mutant” value (shortened to “Concentration … Culture solution + Mutant”) [1] was 12 g/L, the “Concentration of glucose generated, Celluclast + Mutant” value (shortened to “Concentration … Celluclast + Mutant”) [2] was 15 g/L and the “Relative activity to degrade phosphoric acid swollen cellulose” value ([3]; vanillin 0 mM) was 100%. The “Relative activity to degrade phosphoric acid swollen cellulose” value ([3]; vanillin 5 mM) was 100%, the “Relative activity to degrade phosphoric acid swollen cellulose” value ([3]; vanillin 10 mM) was 100% and the “Relative activity to degrade phosphoric acid swollen cellulose” value ([3]; vanillin 15 mM) was 95%. For the same molecule, the “Concentration … Culture solution + Mutant” value [4] was 12 g/L, the Relative activity [5] was 100% and the “Relative activity to degrade phosphoric acid swollen cellulose” value ([6]; ferulic acid 0 mM) was 100%. The “Relative activity to degrade phosphoric acid swollen cellulose” value ([6]; ferulic acid 5 mM) was 100%, the “Relative activity to degrade phosphoric acid swollen cellulose” value ([6]; ferulic acid 10 mM) was 100% and the “Relative activity to degrade phosphoric acid swollen cellulose” value ([6]; ferulic acid 15 mM) was 95%. For the same molecule, the “Concentration … Celluclast + Mutant” value [7] was 15 g/L, the “Concentration … Culture solution + Mutant” value [8] was 12 g/L and the “Concentration … Celluclast + Mutant” value [9] was 15 g/L.
